Reference: PMC4215112 (Clinical and Experimental Allergy, 2014)

B1: M0418 scFv-Fcε fusion protein (Fc fusion, human)
VH: QVQLVQSGAEVKKPGESLKISCKGSEYSFPNYWIAWVRQMPGKGLEWMGMIYPGDSDTRYSPSFQGQVNISADKSSRTAFLEWSSLKASDSATYFCARLGGQLWNSYYYYYYMDVWGKGTTVTVSS
VL: SYELTQPPSASGTPGQRVTISCSGSSSNIGGNTVNWYQQVPGTAPRLLIYKNNQRPSGVPDRFSGSKSGTSASLAISGLRSEDEADYYCEAWDGGLRGGVFGGGTKLTVL
notes: as the VH of m14; (Gly4Ser)3 linker as told for the M0418 scFv construct, written out from the printed formula; as the VL of m14; also called the M0418 construct; IgE clone M0418; source: HEK293, transfected, in filtered supernatant; not shown: Fc (human IgE, second, third and fourth constant domains, CHε2-4), C-terminal, kept
B2: B14 scFv-Fcε fusion protein (Fc fusion, human)
VH: EVQLVQSGAEVKKPGESLKISCKGSEYSFPNYWIAWVRQMPGKGLEWMGMIYPGDSDTRYSPSFQGQVNISADKSSRTAFLEWSSLKASDSATYFCARLGGQLWNSYYYYYMDVWGKGTTVTVSS
VL: QSVLTQPPSVSVSPGQTARITCSGDKLGNKYAAWYQQKPGQSPVLVIYQDSKRPSGIPERFSGSNSGNTATLTISGTQAMDEADYYCQAWDSSTFYVFGTGTKLTVL
notes: as the VH of m13; as the VL of m13; also called B14 scFv-CHε2-4 fusion protein; source: HEK293, transfected, in filtered supernatant; not shown: Fc (human IgE, second, third and fourth constant domains, CHε2-4), C-terminal, kept
B3: B13 scFv-Fcε fusion protein (Fc fusion)
VH: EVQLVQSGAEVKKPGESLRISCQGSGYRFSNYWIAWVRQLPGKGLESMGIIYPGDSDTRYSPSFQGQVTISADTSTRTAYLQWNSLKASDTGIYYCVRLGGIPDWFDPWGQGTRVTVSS
VL: SYELTQPPSVSGSPGQSVTISCTGTSSDVGGYNLVSWYQQHPGKAPRLMIYEDTKRPSGVSHRFSGSKSGNTASLTISGLQAEDEADYYCYSYATGRPSRLFGGGTKLTVL
notes: as the VH of m12; as the VL of m12; also called B13 scFv-CHε2-4 fusion protein; source: HEK293, transfected, in filtered supernatant; not shown: Fc (human IgE, second, third and fourth constant domains, CHε2-4), C-terminal, kept

Tests used:
[1] = target: T1, Recombinant Aln g 1.0101 (Alnus glutinosa, isoform Aln g 1.0101, UniProt P38948); assay: ELISA; allergens coated at 5 μg/mL in PBS; scFv-Fcε from HEK293 supernatant detected with HRP anti-IgE antiserum; duplicates; settings: one partner purified
T1 construct: By its allergen name from Alnus glutinosa (alder); source: bought: Biomay (Vienna, Austria), recombinant

[2] = target: T2, Bet v 1 (isoform not stated for the experiment) (birch, UniProt P15494); assay: ELISA; inhibition ELISA: binding of scFv-Fcε to immobilized Bet v 1 in the presence of the identified peptides in soluble form; settings: one partner purified
T2 construct: also called immobilized Bet v 1

T1 sequence (P38948 whole entry, looked up, canonical isoform): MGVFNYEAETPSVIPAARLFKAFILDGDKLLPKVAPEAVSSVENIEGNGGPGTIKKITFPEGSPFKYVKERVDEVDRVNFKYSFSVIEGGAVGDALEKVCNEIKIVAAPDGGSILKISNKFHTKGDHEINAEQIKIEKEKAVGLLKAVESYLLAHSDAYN

Row | Binder | binding result [1] | binding result [2]
1 | B1 | no binding | binds
2 | B2 |  | binds
3 | B3 |  | binds
